In US20220154221, “SITE SPECIFIC RECOMBINASE INTEGRASE VARIANTS AND USES THEREOF IN GENE EDITING IN EUKARYOTIC CELLS” (RAMOT AT TEL-AVIV UNIVERSITY LTD., published 2022):

T1: HK022 Int E174K (Bacteriophage HK022, UniProt P16407 SEQ:1-357, E174K)
T1 sequence: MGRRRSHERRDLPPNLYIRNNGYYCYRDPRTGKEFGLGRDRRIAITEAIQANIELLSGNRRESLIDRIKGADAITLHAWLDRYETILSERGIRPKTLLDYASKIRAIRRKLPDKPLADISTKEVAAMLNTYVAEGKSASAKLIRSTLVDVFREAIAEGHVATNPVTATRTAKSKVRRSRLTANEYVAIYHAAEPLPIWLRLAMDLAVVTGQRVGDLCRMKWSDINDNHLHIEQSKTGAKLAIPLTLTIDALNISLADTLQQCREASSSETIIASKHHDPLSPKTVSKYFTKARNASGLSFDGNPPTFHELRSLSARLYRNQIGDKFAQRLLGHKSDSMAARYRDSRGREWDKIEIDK

T2: HK022 integrase (oInt / wild type) (Bacteriophage HK022, UniProt P16407 SEQ:1-357)
T2 sequence: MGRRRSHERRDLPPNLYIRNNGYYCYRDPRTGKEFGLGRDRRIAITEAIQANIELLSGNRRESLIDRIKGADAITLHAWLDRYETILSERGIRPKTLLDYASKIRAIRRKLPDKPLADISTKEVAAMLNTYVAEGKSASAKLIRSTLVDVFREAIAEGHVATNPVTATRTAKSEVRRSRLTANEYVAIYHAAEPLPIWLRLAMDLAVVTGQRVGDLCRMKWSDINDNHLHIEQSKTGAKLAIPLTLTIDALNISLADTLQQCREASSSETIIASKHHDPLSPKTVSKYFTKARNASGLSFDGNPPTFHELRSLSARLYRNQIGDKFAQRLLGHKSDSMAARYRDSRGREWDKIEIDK

T3: HK022 Int D278K (Bacteriophage HK022, UniProt P16407 SEQ:1-357, D278K)
T3 sequence: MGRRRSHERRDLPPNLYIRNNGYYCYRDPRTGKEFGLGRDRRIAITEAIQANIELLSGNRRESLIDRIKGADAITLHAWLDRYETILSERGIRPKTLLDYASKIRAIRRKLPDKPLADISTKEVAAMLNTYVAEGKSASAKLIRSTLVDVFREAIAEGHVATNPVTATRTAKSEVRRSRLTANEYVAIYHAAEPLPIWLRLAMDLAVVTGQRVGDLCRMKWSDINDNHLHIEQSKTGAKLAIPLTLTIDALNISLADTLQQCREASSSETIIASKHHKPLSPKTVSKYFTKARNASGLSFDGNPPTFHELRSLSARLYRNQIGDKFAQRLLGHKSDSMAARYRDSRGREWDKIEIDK

T4: HK022 Int E174K+I43F+R319G (Bacteriophage HK022, UniProt P16407 SEQ:1-357, I43F,E174K,R319G)
T4 sequence: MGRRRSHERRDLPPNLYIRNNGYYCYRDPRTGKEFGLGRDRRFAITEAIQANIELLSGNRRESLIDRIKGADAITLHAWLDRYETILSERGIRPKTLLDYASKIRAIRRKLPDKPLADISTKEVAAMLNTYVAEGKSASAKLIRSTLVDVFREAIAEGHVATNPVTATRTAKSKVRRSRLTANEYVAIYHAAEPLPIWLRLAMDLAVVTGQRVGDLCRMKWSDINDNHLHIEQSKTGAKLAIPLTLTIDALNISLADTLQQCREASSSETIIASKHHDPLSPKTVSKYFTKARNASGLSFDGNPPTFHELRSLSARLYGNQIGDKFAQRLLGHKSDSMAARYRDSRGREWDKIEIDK

T5: HK022 Int E174K+D278K (Bacteriophage HK022, UniProt P16407 SEQ:1-357, E174K,D278K)
T5 sequence: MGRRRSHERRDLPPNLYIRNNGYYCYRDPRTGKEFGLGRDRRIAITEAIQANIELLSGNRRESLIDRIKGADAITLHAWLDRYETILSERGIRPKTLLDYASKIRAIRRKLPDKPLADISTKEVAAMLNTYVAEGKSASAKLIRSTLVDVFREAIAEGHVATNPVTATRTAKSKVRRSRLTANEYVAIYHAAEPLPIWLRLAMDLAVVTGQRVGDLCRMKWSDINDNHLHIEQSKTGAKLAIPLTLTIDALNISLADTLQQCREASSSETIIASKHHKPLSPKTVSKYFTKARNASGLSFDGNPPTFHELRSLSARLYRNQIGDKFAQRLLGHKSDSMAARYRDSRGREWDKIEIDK

B1: wild-type attB (dsDNA)
DNA 1: GCACTTTAGGTGAAAAAGGTT
DNA 2: AACCTTTTTCACCTAAAGTGC
B2: DMD3 attB (dsDNA)
DNA 1: GTGCTTTAAAAAGAAAAGGGG
DNA 2: CCCCTTTTCTTTTTAAAGCAC
B3: DMD2 attB (dsDNA)
DNA 1: TTGCTTAATGGAGAAAAGGTA
DNA 2: TACCTTTTCTCCATTAAGCAA

Assays:
HK022 Int E174K = biological target: T1, HK022 Int E174K; test: cell_activity; trans attB x attP, HEK293T (Example 8 quotes 147%); details: chain copies: 4
Experimental: (§1) To examine the activity of these Int variants, an analytic assay was performed of a transient trans integrative recombination reaction using the wild type attB and attP sites in human HEK293T cells in which each att site is located on a different substrate plasmid (FIG. 2B). The first substrate (pMK221) carries the attP site downstream to the cytomegalovirus promoter (CMV). The second plasmid (pMK223) carries the attB downstream to the open reading frame (ORF) of the green fluorescent protein (GFP) and upstream to a transcription terminator (Stop).
(§2) A productive attB×attP reaction forms a dimer plasmid encoding CMV-promoted GFP expression (FIG. 2B). HEK293T cells were co-transfected with these two substrate plasmids, with or without an Int-expressing plasmid (the oInt pNA979, or one of its Int mutant derivatives). 48 hours post-transfection GFP expressing cells were analyzed by fluorescence-activated cell sorting (FACS).

[1] = biological target: T2, HK022 integrase (oInt / wild type); test: cell_activity; trans attB x attP integration, HEK293T, reference; details: tags: human codon-optimised (oInt) in human cells; native gene in E. coli; chain copies: 4
Experimental: as §1, §2

HK022 Int D278K = biological target: T3, HK022 Int D278K; test: cell_activity; trans attB x attP, HEK293T; details: chain copies: 4
Experimental: as §1, §2

[2] = biological target: T4, HK022 Int E174K+I43F+R319G; test: cell_activity; trans attB x attP, HEK293T; details: chain copies: 4
Experimental: as §1, §2

HK022 Int E174K+D278K = biological target: T5, HK022 Int E174K+D278K; test: cell_activity; genomic RMCE at DMD2/DMD3, HEK293; details: chain copies: 4
Experimental: (§3) Plasmid transformations were performed by electroporation (Sambrook, J., et al (1989) Cold Spring Harbor, N.Y.). Plasmids and oligomers are listed in Tables 1,3,5 and 2,4,6 respectively. Human embryonic kidney cells HEK293, 293T, and 293 Flp-In were cultured in Dulbecco's modified Eagle's medium (DMEM). For transient transfection 293T cells (˜6×10⁵) were plated in a 6 well plate and 24 h later treated with 3 μg of the proper plasmid DNA using PureFection Transfection Reagent (System Biosciences, Mountain View, Calif., USA). For the model chromosomal assay transfection, 293 Flp-In cells (˜6×10⁵) were plated in a 6 well plate and 24 h later treated with 5.5 μg of the proper plasmid DNA using Mirus Transfection Reagent (Mirus, Wis., USA). For the CTNS and DMD chromosomal assay transfection, HEK293 cells (˜6×10⁵) were plated in a 6 well plate and 24 h later treated with 3 μg of the proper plasmid DNA using PureFection Transfection Reagent.
(§4) In the DMD model, DMD2 and DMD3 “attB” sites were chosen which are 23 Kb apart located in introns 43 and 44 respectively that flank exon 44 (FIG. 12B). The relevant deletion mutation located in exon 44 is described (GM23715, Coriell institute). A GFP promoter trap whose incoming plasmid carried a splicing acceptor (SA), a ribosomal skipping site (2A) and the ORF of EGFP with a polyA sequence (FIG. 12A) was used. All are flanked with the two relevant “attP”s 1.4 Kb apart. […] The correct sequence of all PCR products was confirmed by NGS.

[3] = biological target: T4, HK022 Int E174K+I43F+R319G; test: cell_activity; genomic RMCE at DMD2/DMD3, HEK293; details: chain copies: 4
Experimental: as §3, §4

Binder | recombination activity (GFP+ cells, relative to oInt) (HK022 Int E174K) | integrative recombination activity [1] | integration activity (HK022 Int D278K) | integration activity [2] | activity (HK022 Int E174K+D278K) | activity [3]
B1 | 1.54 fold of oInt | 1 fold of oInt | 1.48 fold of oInt | 2.3 fold of oInt | – | –
B2 | – | – | – | – | 0.4 % cells | 0.4 % cells
B3 | – | – | – | – | 0.4 % cells | 0.4 % cells
